Source: PMC9772228, “Structure of a RecT/Redβ family recombinase in complex with a duplex intermediate of DNA annealing”
Numbering of substitutions follows the chain as printed.

Key:
Test in all cases: EMSA; EMSA: PBS pH 7.4 (or KH2PO4/10 mM MgCl2 pH 6.0), 3.6 or 5 uM protein, 25 uM nt DNA, 37 C 15 min per strand, 0.8% agarose 1x TBE; cryo-EM: 20 mM KH2PO4 (Results: 10 mM), 10 mM MgCl2 pH 6.0, 37 C; native MS: 100 mM ammonium acetate pH 7, 37 C
Conditions in all cases: protein: recombinant, tags: N-terminal 6His vector tag (20 aa) retained, chain copies: 10
LiRecT Y100E = molecular target: T1, LiRecT Y100E (Listeria innocua CLIP 11262, UniProt Q92FL9 1-271, Y100E)
T1 sequence: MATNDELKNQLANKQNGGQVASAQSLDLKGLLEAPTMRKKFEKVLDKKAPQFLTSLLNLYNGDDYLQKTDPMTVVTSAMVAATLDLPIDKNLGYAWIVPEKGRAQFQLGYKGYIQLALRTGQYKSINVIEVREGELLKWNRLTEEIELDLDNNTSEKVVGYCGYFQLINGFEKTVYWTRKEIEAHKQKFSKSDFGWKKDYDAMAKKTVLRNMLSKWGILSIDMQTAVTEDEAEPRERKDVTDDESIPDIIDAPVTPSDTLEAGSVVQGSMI

LiRecT V98A/Y100A/Q107A = molecular target: T2, LiRecT V98A/Y100A/Q107A (Listeria innocua CLIP 11262, UniProt Q92FL9 1-271, V98A;Y100A;Q107A)
T2 sequence: T1 sequence with V98A, E100A, Q107A

LiRecT Y100A = molecular target: T3, LiRecT Y100A (Listeria innocua CLIP 11262, UniProt Q92FL9 1-271, Y100A)
T3 sequence: T1 sequence with E100A

LiRecT K157A = molecular target: T4, LiRecT K157A (Listeria innocua CLIP 11262, UniProt Q92FL9 1-271, K157A)
T4 sequence: T1 sequence with E100Y, K157A

LiRecT Q107H = molecular target: T5, LiRecT Q107H (Listeria innocua CLIP 11262, UniProt Q92FL9 1-271, Q107H)
T5 sequence: T1 sequence with E100Y, Q107H

[1] = label: 5'-Cy3;5'-Cy5, 49 bp, 1 nt 5' overhang at each end

Measured: binding result

CCATCCGCAAAAATCGAGCTATGCAGGGCGATTCTGCTCTAAGCCATCCG (ssDNA) [Cy5-50mer]
binds: LiRecT Y100E; label: 5'-Cy5, single strand | LiRecT V98A/Y100A/Q107A; label: 5'-Cy5, single strand | LiRecT Y100A; label: 5'-Cy5, single strand | LiRecT K157A; label: 5'-Cy5, single strand | LiRecT Q107H; label: 5'-Cy5, single strand

B1: 50-mer duplex intermediate (sequential addition) (dsDNA)
DNA 1: GCGGATGGCTTAGAGCAGAATCGCCCTGCATAGCTCGATTTTTGCGGATG
DNA 2: CCATCCGCAAAAATCGAGCTATGCAGGGCGATTCTGCTCTAAGCCATCCG
binds: LiRecT Y100E; [1] | LiRecT V98A/Y100A/Q107A; [1] | LiRecT Y100A; [1] | LiRecT K157A; [1] | LiRecT Q107H; [1]

GCGGATGGCTTAGAGCAGAATCGCCCTGCATAGCTCGATTTTTGCGGATG (ssDNA) [Cy3-50mer]
binds: LiRecT Y100E; label: 5'-Cy3, single strand | LiRecT V98A/Y100A/Q107A; label: 5'-Cy3, single strand | LiRecT Y100A; label: 5'-Cy3, single strand | LiRecT K157A; label: 5'-Cy3, single strand | LiRecT Q107H; label: 5'-Cy3, single strand
